Experimental data from paper PMC12687424 (2025).
FAM = fluorescein label

Molecular target: WT PKCβII catalytic domain (UniProt P05771-2 321-673, primed (phosphorylated) at the three PKC priming sites (T-loop, turn motif, hydrophobic motif))
Experiment: FP; representative curve

Sequence of WT PKCβII catalytic domain (P05771 other isoform, or with tags, fused parts or gaps): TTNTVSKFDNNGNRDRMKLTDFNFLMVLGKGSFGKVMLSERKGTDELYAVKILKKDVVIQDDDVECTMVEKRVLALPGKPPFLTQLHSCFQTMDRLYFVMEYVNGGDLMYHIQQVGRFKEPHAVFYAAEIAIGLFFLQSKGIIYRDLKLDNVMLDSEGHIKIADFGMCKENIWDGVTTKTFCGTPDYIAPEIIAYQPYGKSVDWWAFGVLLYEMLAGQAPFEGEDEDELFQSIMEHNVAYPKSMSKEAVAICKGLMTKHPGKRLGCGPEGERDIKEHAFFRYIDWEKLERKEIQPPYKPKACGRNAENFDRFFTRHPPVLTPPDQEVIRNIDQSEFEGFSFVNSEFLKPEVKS

B1: Fluorescein-PSS peptide (peptide)
peptide: {FAM}-ESTVRFARKGSLRQKNVH-NH2
**Q.** B1 was tested. Which Kd did it give?
**A.** 39 µM
